As usually defined, the Kd is a measure of binding affinity in units of concentration.

This assay deals with T1, CRM1^HA (Mus musculus, UniProt Q6P5F9, L431A/V430A/V432A).
T1 construct: His-ZZ (cleaved yes); made in house; host or cells: Escherichia coli BL21-CodonPlus (DE3)
In words: Isothermal titration calorimetry, CRM1^HA / NES. As to conditions: ITC, TFP-NES titrated onto CRM1^HA, 20°C, 20 mM HEPES pH 7.4; rounded; read-out: KD. In kind it is binding. On the procedure: Isothermal titration calorimetry (ITC)
ITC measurements were carried out using a VIP-ITC MicroCalorimeter (MicroCal, Inc., Northampton, MA). TFP and YFP constructs, as well as CRM1^HA, were dialyzed in a buffer containing 20 mM HEPES, pH 7.4, 50 mM NaCl, 1 mM TCEP, 1 mM MgCl2, and degassed prior to the experiment. Untagged peptides (AS: QDLCLAVEEVSLRK, AL: EAIQDLCLAVEEVSLRK, ES: QDLWQSLAQVSLRK and EL: EAIQDLWQSLAQVSLRK), N-acetylated and 95% pure, were purchased from Proteogenix (Schiltigheim, France) and resuspended in the ITC buffer. Measurements were performed at 20°C. TFP-NES, YFP-NES or NES peptides at 35–180 μM were titrated onto CRM1^HA at 2–14 μM. Injections of 6 μL were performed at 320 seconds interval (the first injection always was of 1 μL and is not considered in data analysis). […]
The reaction heat of each injection is related to the calorimetric enthalpy of binding, ΔH^0. The binding isotherms, ΔH^0 vs. molar ratio, were analyzed with an independent binding sites model using MicroCal Origin software. […] The Gibbs free energy of binding ΔG^0 and the entropy ΔS^0 are determined from the basic thermodynamic expressions: ΔG^0 = -RTlnKA = ΔH^0−TΔS^0, where R and T are the gas constant and the absolute temperature, respectively. […]
(Isothermal titration calorimetry measures the heat released or taken up as one component is titrated into another.)

Numbering of substitutions follows the chain as printed.

T1 sequence (Q6P5F9 1-1062 V430A/L431A/V432A limits assumed): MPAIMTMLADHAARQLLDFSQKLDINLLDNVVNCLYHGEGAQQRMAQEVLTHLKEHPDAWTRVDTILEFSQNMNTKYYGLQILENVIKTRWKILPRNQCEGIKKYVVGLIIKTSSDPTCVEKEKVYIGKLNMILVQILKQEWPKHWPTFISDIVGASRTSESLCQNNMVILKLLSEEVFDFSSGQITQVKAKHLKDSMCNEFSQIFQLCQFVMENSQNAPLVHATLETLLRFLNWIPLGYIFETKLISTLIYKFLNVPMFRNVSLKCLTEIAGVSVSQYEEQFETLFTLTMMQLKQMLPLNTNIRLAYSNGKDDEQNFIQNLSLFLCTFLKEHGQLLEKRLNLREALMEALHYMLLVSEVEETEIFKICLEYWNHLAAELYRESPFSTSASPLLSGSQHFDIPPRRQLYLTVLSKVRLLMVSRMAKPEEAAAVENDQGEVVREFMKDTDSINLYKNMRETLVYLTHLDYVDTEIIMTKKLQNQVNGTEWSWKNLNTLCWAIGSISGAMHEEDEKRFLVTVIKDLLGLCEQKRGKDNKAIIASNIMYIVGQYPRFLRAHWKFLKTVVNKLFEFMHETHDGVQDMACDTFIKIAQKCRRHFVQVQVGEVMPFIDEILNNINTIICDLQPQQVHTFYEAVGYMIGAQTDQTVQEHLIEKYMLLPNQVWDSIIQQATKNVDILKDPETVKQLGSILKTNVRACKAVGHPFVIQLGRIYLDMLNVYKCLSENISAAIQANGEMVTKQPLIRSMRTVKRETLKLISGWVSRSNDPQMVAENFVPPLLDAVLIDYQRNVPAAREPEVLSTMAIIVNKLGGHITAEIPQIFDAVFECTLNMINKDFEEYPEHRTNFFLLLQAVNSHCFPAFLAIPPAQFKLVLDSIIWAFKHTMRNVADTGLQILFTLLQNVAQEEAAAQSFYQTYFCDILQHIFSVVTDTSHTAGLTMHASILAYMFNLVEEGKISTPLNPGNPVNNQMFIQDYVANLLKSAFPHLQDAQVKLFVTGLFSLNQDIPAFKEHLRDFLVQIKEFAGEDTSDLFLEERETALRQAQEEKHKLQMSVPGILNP

B1: NPMmutE: AML-associated NPM mutant E; in b62 the value is for its NES as TFP construct (protein)
chain: MEDSMDMDMSPLRPQNYLFGCELKADKDYHFKVDNDENEHQLSLRTVSLGAGAKDELHIVEAEAMNYEGSPIKVTLATLKMSVQPTVSLGGFEITPPVVLRLKCGSGPVHISGQHLVAVEEDAESEDEEEEDVKLLSISGKRSAPGGGSKVPQKKVKLAADEDDDDDDEEDDDEDDDDDDFDDEEAEEKAPVKKSIRDTPAKNAQKSNQNGKDSKPSSTPRSKGQESFKKQEKTPKTPKGPSSVEDIKAKMQASIEKGGSLPKVEAKFINYVKNCFRMTDQEAIQDLWQSLAQVSLRK
modifications: full-length mutant E, pentamer (SEC); for the b62 value only the NES DLWQSLAQVSLRK as TFP fusion was assayed
For the molecule B1, the Kd was 1 µM.

B2: NPMmutA: AML-associated NPM mutant A; in b62 the value is for its NES as TFP construct (protein)
chain: B1 chain with W288C, Q289L, S290A, L291V, A292E, Q293E
modifications: full-length mutant A, pentamer (SEC); for the b62 value only the NES DLCLAVEEVSLRK as TFP fusion was assayed
Regarding B2, the Kd amounted to 2.4 µM.

Values taken from publication PMC4474691, “Leukemia-Associated Mutations in Nucleophosmin Alter Recognition by CRM1: Molecular Basis of Aberrant Transport” (PLoS ONE, 2015).
